Measured values from publication PMC3597701 (Nucleic Acids Research, 2013).
Numbering of substitutions follows the chain as printed. Names may count otherwise.

B1: Cdc6 (natural protein)
chain: MSAIPITPTKRIRRNLFDDAPATPPRPLKRKKLQFTDVTPESSPEKLQFGSQSIFLRTKALLQKSSELVNLNSSDGALPARTAEYEQVMNFLAKAISEHRSDSLYITGPPGTGKTAQLDMIIRQKFQSLPLSLSTPRSKDVLRHTNPNLQNLSWFELPDGRLESVAVTSINCISLGEPSSIFQKIFDSFQDLNGPTLQIKNMQHLQKFLEPYHKKTTFVVVLDEMDRLLHANTSETQSVRTILELFLLAKLPTVSFVLIGMANSLDMKDRFLSRLNLDRGLLPQTIVFQPYTAEQMYEIVIQKMSSLPTIIFQPMAIKFAAKKCAGNTGDLRKLFDVLRGSIEIYELEKRFLLSPTRGSLNSAQVPLTPTTSPVKKSYPEPQGKIGLNYIAKVFSKFVNNNSTRTRIAKLNIQQKLILCTIIQSLKLNSDATIDESFDHYIKAITKTDTLAPLQRNEFLEICTILETCGLVSIKKTKCKGKTKRFVDKIDVDLDMREFYDEMTKISILKPFLH
B2: Cdc6 N263A (sensor-1 mutant) (natural protein)
chain: B1 chain with N263A
B3: Cdt1 (natural protein)
chain: MSGTANSRRKEVLRVPVIDLNRVSDEEQLLPVVRAILLQHDTFLLKNYANKAVLDALLAGLTTKDLPDTSQGFDANFTGTLPLEDDVWLEQYIFDTDPQLRFDRKCRNESLCSIYSRLFKLGLFFAQLCVKSVVSSAELQDCISTSHYATKLTRYFNDNGSTHDGADAGATVLPTGDDFQYLFERDYVTFLPTGVLTIFPCAKAIRYKPSTMATTDNSWVSIDEPDCLLFHTGTLLARWSQGMHTTSPLQIDPRANIVSLTIWPPLTTPISSKGEGTIANHLLEQQIKAFPKVAQQYYPRELSILRLQDAMKFVKELFTVCETVLSLNALSRSTGVPPELHVLLPQISSMMKRKIVQDDILKLLTIWSDAYVVELNSRGELTMNLPKRDNLTTLTNKSRTLAFVERAESWYQQVIASKDEIMTDVPAFKINKRRSSSNSKTVLSSKVQTKSSNANALNNSRYLANSKENFMYKEKMPDSQANLMDRLRERERRSAALLSQRQKRYQQFLAMKMTQVFDILFSLTRGQPYTETYLSSLIVDSLQDSNNPIGTKEASEILAGLQGILPMDISVHQVDGGLKVYRWNSLDKNRFSKLLQIHKSKQQD

What follows are binders tested against origin recognition complex (ORC) (S. cerevisiae, UniProt P54784;P32833;P54790;P54791;P50874;P38826) (assay: in vitro pre-RC assembly assay on origin DNA beads).

Row | binding result | Binder
1 | binds | B1
2 | binds | B2
3 | binds | B3
